Reference: publication PMC2756588

T1: Boi1, P38041
T1 sequence (P38041 1-86, looked up): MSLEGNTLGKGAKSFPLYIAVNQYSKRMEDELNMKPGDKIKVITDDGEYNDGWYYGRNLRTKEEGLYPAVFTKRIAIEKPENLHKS

T2: Hof1, Q05080
T2 sequence (Q05080 590-669, looked up): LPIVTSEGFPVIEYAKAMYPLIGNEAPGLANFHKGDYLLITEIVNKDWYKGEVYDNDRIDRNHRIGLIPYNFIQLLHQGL

T3: Cdc25, P04821
T3 sequence (P04821 50-136, looked up): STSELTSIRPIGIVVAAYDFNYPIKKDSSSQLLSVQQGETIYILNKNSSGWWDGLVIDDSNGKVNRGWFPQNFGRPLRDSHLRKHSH

T4: Bud14, P27637
T4 sequence (P27637 247-328, looked up): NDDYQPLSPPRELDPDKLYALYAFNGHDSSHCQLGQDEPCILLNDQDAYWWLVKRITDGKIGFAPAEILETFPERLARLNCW

T5: Bzz1-1, P38822
T5 sequence (P38822 478-572, looked up): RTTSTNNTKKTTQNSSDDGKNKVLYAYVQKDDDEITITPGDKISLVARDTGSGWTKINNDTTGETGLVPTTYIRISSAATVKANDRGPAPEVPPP

T6: Bbc1, P47068
T6 sequence (P47068 1-78, looked up): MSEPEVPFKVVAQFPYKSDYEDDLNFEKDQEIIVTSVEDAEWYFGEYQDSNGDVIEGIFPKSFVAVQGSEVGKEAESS

T7: Sla1-3, P32790
T7 sequence (P32790 344-424, looked up): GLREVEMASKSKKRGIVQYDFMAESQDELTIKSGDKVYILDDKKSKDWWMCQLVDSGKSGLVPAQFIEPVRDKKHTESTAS

T8: Lsb1, P53281
T8 sequence (P53281 45-122, looked up): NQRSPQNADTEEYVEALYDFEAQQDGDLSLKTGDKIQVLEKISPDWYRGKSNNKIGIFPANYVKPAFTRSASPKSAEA

T9: Lsb3, P43603
T9 sequence (P43603 385-451, looked up): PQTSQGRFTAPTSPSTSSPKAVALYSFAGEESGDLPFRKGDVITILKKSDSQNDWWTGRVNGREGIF

T10: Boi2, P39969
T10 sequence (P39969 32-116, looked up): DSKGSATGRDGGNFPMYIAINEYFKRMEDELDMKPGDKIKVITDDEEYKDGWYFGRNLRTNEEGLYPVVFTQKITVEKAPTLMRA

T11: Bzz1-2, P38822
T11 sequence (P38822 568-633, looked up): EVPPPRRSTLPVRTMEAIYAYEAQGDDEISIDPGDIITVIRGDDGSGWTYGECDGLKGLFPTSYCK

T12: Sla1-2, P32790
T12 sequence (P32790 60-140, looked up): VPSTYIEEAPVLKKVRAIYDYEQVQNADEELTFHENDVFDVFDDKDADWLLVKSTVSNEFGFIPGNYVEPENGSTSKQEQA

T13: Lsb4, P32793
T13 sequence (P32793 402-468, looked up): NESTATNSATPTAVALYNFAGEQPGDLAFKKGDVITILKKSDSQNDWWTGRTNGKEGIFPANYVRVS

T14: Nbp2, Q12163
T14 sequence (Q12163 103-180, looked up): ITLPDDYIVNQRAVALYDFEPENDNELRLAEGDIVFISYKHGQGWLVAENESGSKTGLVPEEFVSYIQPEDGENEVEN

T15: Hse1, P38753
T15 sequence (P38753 208-285, looked up): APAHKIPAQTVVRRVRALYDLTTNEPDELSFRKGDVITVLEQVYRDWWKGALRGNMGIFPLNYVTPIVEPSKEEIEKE

T16: Fus1, P11710
T16 sequence (P11710 432-512, looked up): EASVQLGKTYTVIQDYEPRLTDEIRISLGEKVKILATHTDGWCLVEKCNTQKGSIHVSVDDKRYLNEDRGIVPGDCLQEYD

T17: Pin3, Q06449
T17 sequence (Q06449 53-122, looked up): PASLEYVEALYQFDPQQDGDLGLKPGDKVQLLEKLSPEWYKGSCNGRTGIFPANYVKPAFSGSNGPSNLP

T18: Abp1, P15891
T18 sequence (P15891 535-592, looked up): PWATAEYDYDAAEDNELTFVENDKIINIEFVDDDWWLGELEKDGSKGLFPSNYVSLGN

T19: Myo5, Q04439
T19 sequence (Q04439 1072-1160, looked up): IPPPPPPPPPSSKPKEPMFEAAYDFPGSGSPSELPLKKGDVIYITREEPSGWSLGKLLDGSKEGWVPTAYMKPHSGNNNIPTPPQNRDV

T20: Pex13, P80667
T20 sequence (P80667 295-386, looked up): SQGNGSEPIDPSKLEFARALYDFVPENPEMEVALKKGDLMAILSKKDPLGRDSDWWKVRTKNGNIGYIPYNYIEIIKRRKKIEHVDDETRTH

T21: Cyk3, Q07533
T21 sequence (Q07533 1-83, looked up): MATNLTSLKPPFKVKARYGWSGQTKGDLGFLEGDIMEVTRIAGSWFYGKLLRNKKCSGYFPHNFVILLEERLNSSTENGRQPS

B1: unnamed (peptide)
chain: HRRRRVFSIPSLKSI
B2: unnamed (peptide)
chain: ALRRRLPVTRSKINW
B3: unnamed (peptide)
chain: RRRRRPHRIERPLSN
B4: unnamed (peptide)
chain: QHQQRQPKRPKRYSL
B5: unnamed (peptide)
chain: RSLRKRPTSPSISGS
B6: unnamed (peptide)
chain: KRKRFNLLLPKPYLT

Each binder was assayed against T1, Boi1, P38041 (assay: SPOT array). Settings: median of control spots 1162.

SPOT intensity	Binder
15	B1
13	B2
9	B3
13	B4
5	B5
9	B6

These binders were tested against T2, Hof1, Q05080 (assay: SPOT array). Settings: median of control spots 4086.

SPOT intensity	Binder
17	B1
14	B2
4	B3
3	B4
13	B5
4	B6

These binders were tested against T3, Cdc25, P04821 (assay: SPOT array). Settings: median of control spots 969.

SPOT intensity	Binder
131	B1
46	B2
28	B3
22	B4
52	B5
32	B6

Each binder was assayed against T4, Bud14, P27637 (assay: SPOT array). Settings: median of control spots 956.

SPOT intensity	Binder
64	B1
6	B2
24	B3
8	B4
22	B5
34	B6

These binders were tested against T5, Bzz1-1, P38822 (assay: SPOT array). Settings: median of control spots 4446.

SPOT intensity	Binder
3	B1
0	B2
2	B3
0	B4
0	B5
3	B6

The binders below were run against T6, Bbc1, P47068 (assay: SPOT array). Settings: median of control spots 796.

SPOT intensity	Binder
395	B1
245	B2
515	B3
211	B4
175	B5
175	B6

Each binder was assayed against Rvs167, P39743 (assay: SPOT array). Settings: median of control spots 2707.
Chain of Rvs167, P39743 (P39743 419-482): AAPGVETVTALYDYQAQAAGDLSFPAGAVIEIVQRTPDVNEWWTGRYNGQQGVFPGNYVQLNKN

SPOT intensity	Binder
3	B1
8	B2
4	B3
0	B4
2	B5
3	B6

What follows are binders tested against T7, Sla1-3, P32790 (assay: SPOT array). Settings: median of control spots 5475.

SPOT intensity	Binder
117	B1
73	B2
25	B3
78	B4
44	B5
34	B6

What follows are binders tested against T8, Lsb1, P53281 (assay: SPOT array). Settings: median of control spots 388.

SPOT intensity	Binder
114	B1
46	B2
0	B3
5	B4
26	B5
0	B6

These binders were tested against T9, Lsb3, P43603 (assay: SPOT array). Settings: median of control spots 406.

SPOT intensity	Binder
5	B1
4	B2
8	B3
36	B4
14	B5
0	B6

Each binder was assayed against GST (assay: SPOT array). Settings: median of control spots 978.

SPOT intensity	Binder
1	B1
2	B2
1	B3
8	B4
3	B5
2	B6

What follows are binders tested against T10, Boi2, P39969 (assay: SPOT array). Settings: median of control spots 1161.

SPOT intensity	Binder
4	B1
1	B2
0	B3
4	B4
0	B5
2	B6

Each binder was assayed against Bem1-1, P29366 (assay: SPOT array). Settings: median of control spots 4282.
Chain of Bem1-1, P29366 (P29366 55-141): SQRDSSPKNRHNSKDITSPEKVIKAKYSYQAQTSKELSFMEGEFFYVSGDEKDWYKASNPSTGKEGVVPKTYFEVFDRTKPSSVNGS

SPOT intensity	Binder
1	B1
0	B2
1	B3
1	B4
0	B5
3	B6

These binders were tested against Sho1, P40073 (assay: SPOT array). Settings: median of control spots 1148.
Chain of Sho1, P40073 (P40073 287-367): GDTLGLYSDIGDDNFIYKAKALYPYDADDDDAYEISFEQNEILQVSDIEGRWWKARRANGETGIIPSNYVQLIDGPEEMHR

SPOT intensity	Binder
123	B1
196	B2
270	B3
115	B4
295	B5
98	B6

Each binder was assayed against T11, Bzz1-2, P38822 (assay: SPOT array). Settings: median of control spots 4538.

SPOT intensity	Binder
5	B1
7	B2
5	B3
17	B4
21	B5
6	B6

What follows are binders tested against T12, Sla1-2, P32790 (assay: SPOT array). Settings: median of control spots 712.

SPOT intensity	Binder
0	B1
0	B2
0	B3
5	B4
1	B5
2	B6

What follows are binders tested against T13, Lsb4, P32793 (assay: SPOT array). Settings: median of control spots 397.

SPOT intensity	Binder
10	B1
7	B2
6	B3
101	B4
5	B5
1	B6

Each binder was assayed against T14, Nbp2, Q12163 (assay: SPOT array). Settings: median of control spots 357.

SPOT intensity	Binder
176	B1
149	B2
74	B3
21	B4
198	B5
53	B6

The binders below were run against T15, Hse1, P38753 (assay: SPOT array). Settings: median of control spots 1727.

SPOT intensity	Binder
19	B1
35	B2
16	B3
33	B4
55	B5
12	B6

What follows are binders tested against T16, Fus1, P11710 (assay: SPOT array). Settings: median of control spots 1200.

SPOT intensity	Binder
136	B1
25	B2
43	B3
55	B4
44	B5
64	B6

The binders below were run against T17, Pin3, Q06449 (assay: SPOT array). Settings: median of control spots 2171.

SPOT intensity	Binder
7	B1
10	B2
1	B3
2	B4
8	B5
0	B6

The binders below were run against T18, Abp1, P15891 (assay: SPOT array). Settings: median of control spots 935.

SPOT intensity	Binder
158	B1
134	B2
133	B3
106	B4
224	B5
72	B6

Each binder was assayed against T19, Myo5, Q04439 (assay: SPOT array). Settings: median of control spots 471.

SPOT intensity	Binder
0	B1
0	B2
1	B3
2	B4
2	B5
0	B6

The binders below were run against T20, Pex13, P80667 (assay: SPOT array). Settings: median of control spots 1341.

SPOT intensity	Binder
4	B1
4	B2
2	B3
6	B4
5	B5
3	B6

These binders were tested against Myo3, P36006 (assay: SPOT array). Settings: median of control spots 468.

SPOT intensity	Binder
6	B1
10	B2
7	B3
2	B4
9	B5
0	B6

These binders were tested against T21, Cyk3, Q07533 (assay: SPOT array). Settings: median of control spots 1451.

SPOT intensity	Binder
5	B1
2	B2
5	B3
1	B4
1	B5
3	B6

The binders below were run against Bem1-2, P29366 (assay: SPOT array). Settings: median of control spots 4347.
Chain of Bem1-2, P29366 (P29366 139-227): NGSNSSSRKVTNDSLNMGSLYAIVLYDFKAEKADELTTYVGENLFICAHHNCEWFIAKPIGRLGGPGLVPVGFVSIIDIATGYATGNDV

SPOT intensity	Binder
8	B1
7	B2
5	B3
147	B4
5	B5
4	B6
